Data on two molecules can be found in patent US20160106830A1.

In assay [1] the target is HLA-DR7 (α1*01:01; β1*07:01) (human). In words: ProImmune REVEAL class II MHC-peptide binding assay.
The target in assay [2] is HLA-DR4 (α1*01:01; β1*04:01) (human). The assay is described as above.

Regarding VGPLTVNEKRRLKLIMPARFYPNVTKYLPLDKGIK (modifications not checked) [NP113], the binding score (% of positive control peptide signal) worked out at 99.2% in assay [1] and 33.5% in assay [2].
On to PEHVVNHYFQTRHYLHTLWKAGILYKRETTRSASF (modifications not checked) [NP151], for which the binding score (% of positive control peptide signal) in assay [1] is 19.4%; in assay [2], 74.4%.
